# Changes are numbered by the printed parent chain.
# Assays:
# Assay in all cases: cleavage_in_vitro
# [1] = system: T1, AvrII (Anabaena variabilis); settings: NEB1, 10 mM MgCl2, 37 C
# T1 sequence: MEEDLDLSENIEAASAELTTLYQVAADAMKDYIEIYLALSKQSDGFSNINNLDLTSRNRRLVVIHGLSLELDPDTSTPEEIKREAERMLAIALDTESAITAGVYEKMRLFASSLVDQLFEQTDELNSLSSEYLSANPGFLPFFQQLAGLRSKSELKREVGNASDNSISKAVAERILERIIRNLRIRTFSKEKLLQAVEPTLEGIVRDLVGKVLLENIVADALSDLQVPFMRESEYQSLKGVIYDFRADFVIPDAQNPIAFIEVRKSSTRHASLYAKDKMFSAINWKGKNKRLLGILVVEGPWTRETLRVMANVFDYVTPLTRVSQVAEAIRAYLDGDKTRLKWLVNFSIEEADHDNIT
# [2] = system: T2, AvrII-HF Y104F (Anabaena variabilis); settings: NEB4, 10 mM Mg acetate, 37 C
# T2 sequence: T1 sequence with Y104F
# [3] = target: T3, SalI-HF R107A (Streptomyces albus G) (UniProt Q53608); settings: NEB2, 10 mM MgCl2, 37 C; Table 10 gives FI >=2000
# T3 sequence: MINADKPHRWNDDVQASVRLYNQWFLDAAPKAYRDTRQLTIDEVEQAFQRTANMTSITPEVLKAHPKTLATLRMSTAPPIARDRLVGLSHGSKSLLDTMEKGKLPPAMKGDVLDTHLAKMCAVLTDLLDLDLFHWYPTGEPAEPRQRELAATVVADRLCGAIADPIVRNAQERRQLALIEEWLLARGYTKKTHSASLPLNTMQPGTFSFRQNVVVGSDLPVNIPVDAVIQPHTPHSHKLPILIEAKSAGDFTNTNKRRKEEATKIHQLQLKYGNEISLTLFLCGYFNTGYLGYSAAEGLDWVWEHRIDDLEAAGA
# [4] = target: T4, SalI (Streptomyces albus G) (UniProt Q53608); settings: NEB3, 10 mM MgCl2, 37 C; Table 10 gives FI 4
# T4 sequence: T3 sequence with A107R
# [5] = target: T5, PvuII (Proteus vulgaris) (UniProt P23657); settings: NEB1, 10 mM MgCl2, 37 C
# T5 sequence: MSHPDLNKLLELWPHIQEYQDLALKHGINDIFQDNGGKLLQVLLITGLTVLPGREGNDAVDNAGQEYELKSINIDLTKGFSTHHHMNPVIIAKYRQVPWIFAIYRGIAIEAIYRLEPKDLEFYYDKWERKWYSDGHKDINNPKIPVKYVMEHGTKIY
# [6] = target: T6, PvuII-HF T46G (Proteus vulgaris) (UniProt P23657); settings: NEB4, 10 mM Mg acetate, 37 C
# T6 sequence: T5 sequence with T46G
# [7] = system: T7, BspQI-HF K279P/R388F (Bacillus sphaericus); settings: NEB4, 10 mM Mg acetate, 50 C
# T7 sequence: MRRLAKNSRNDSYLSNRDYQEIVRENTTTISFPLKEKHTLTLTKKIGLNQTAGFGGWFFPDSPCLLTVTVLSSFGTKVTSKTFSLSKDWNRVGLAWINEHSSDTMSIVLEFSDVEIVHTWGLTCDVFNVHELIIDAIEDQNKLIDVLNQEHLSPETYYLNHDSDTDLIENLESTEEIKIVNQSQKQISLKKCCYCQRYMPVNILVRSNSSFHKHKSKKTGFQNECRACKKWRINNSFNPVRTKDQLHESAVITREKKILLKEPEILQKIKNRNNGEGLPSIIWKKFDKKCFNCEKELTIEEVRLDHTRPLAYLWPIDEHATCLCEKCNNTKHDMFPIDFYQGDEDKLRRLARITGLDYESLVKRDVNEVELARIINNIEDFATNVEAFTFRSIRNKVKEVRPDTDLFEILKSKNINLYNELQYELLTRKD
substance,measurement,setting,value
T7 DNA,activity (fidelity index),[1],64
same,activity (fidelity index),[2],> 1000
lambda DNA HindIII-digested,activity (fidelity index),[3],> 64000
same,activity (fidelity index),[4],32
pBR322,activity (fidelity index),[5],250
same,activity (fidelity index),[6],500
pUC19,activity (fidelity index),[7],> 4000

# Source: patent publication US20130115676
